Measurements published in patent US20230093708A1, “PROTEIN NANOPARTICLE DESIGN AND APPLICATION” (Duke University, priority 2020, published 2023).
Non-standard residues stand in square brackets, D forms with d. Phe(4-N3) = [N-]=[N+]=Nc1ccc(C[C@H](N)C(=O)O)cc1

Assays:
Type in all cases: physicochemical
[1] = Static and dynamic light scattering (SLS/DLS) of block co-polypeptides
Summary of the method: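 Samples at 10 μM in PBS (140 mM NaCl, 10 mM phosphate, 3 mM KCl, pH 7.4), filtered 0.45 μm, measured at 15 °C over 30°–150° in 5° steps. Rh from cumulant fit of DLS, extrapolated to zero angle. Rg and MW from partial Zimm plots of SLS.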

[2] = Temperature-programmed dynamic light scattering; details: between 4 °C and 37 °C; micelles 20-37 °C; 10 μM in 140 mM PBS
Method: Temperature-programmed dynamic light scattering experiments were carried out using a Dynapro plate reader (Wyatt Technology; Santa Barbara, Calif.) with samples filtered through 0.45 μm Millex-GV filters. Data were collected at increments of 1° C., and the cumulant fit hydrodynamic radius was taken as the radius. The Tt was defined as the temperature at which aggregates of size hundreds of nanometers were formed.
Each block co-polypeptide was analyzed by dynamic light scattering (DLS) at several temperatures between 4° C. and 37° C. to determine the thermal stability of the micelles, and to determine their radius of hydration (Rh). […] In contrast, RLP40-ELP80 (SEQ ID NO: 84) and RLP40-ELP80-Fn3 (SEQ ID NO: 96) self-assembled into micelles with a Rh of 30 and 32 nm, respectively, between 20-37° C. (FIG. 15).
Therefore, to get a more accurate picture, we monitored the Rh as we slowly cooled the solution. We observed two different overall behaviors. [S]-40-[QHN]-40 (SEQ ID NO: 100) upon cooling underwent a clear unimer to micelle transition at ˜55° C. and a clear micelle to aggregate transition at 28° C. (FIG. 32B). A unimer to micelle transition that is temperature dependent is known as the critical micellization temperature (CMT). As we know from before, this UCST aggregation temperature is dependent on the solution concentration. [S]-80-[QHN]-40 (SEQ ID NO: 101) remained a micelle at the highest temperature we could measure with the instrument. Upon cooling the size of the aggregate increased slightly until a clear aggregate transition at 18° C.

[3] = DLS of native and crosslinked pAzF diblock constructs in PBS and GuHCl; details: for hydrodynamic radius (DLS): Table 12, crosslinked UAA5-40-K8D4 ligand constructs
Description: We wanted to thoroughly investigate the effects of pAzF-introduction as well as nanoparticle crosslinking on nanoparticle self-assembly. For this, we started by characterizing solely our five different ELP/RLP diblock architectures without any C-terminal functionalization. After expression and purification of the diblock constructs using ITC, the pAzF-containing constructs were crosslinked in solution by exposure to UV irradiation and characterized using dynamic light scattering (DLS). […] Generally, both processes seem to have increased the measured radii with this effect being more pronounced for the worm-forming constructs.
Apart from changes in nanoparticle morphology we were particularly interested in the effect pAzF-crosslinking had on their stability. […] GuHCl is a well-known denaturing agent that disrupts any inter- and intramolecular electrostatic forces and completely breaks down the quaternary, tertiary and secondary structure of most known proteins. Covalent bonds—such as the ones formed by pAzF-crosslinking—however remain unaffected by GuHCl, thus, the addition of this denaturing agent was expected to give us insights on the stability of our crosslinked nanoparticles. […] All native samples on the other hand resorted to complete unimerization upon exposure to GuHCl. As the Rh values for the crosslinked particles in GuHCl were generally larger than in PBS, the DLS data furthermore indicates a swelling behavior in the presence of the denaturing agent. This can most probably be attributed to the RLP core which is assumed to be completely collapsed in PBS but will however try to reach an elongated, random-coil morphology in the presence of GuHCl.
The first step of the characterization process was to produce crosslinked particles for the functionalized diblock constructs and to analyze whether the attachment of the ligands had caused any significant changes in particle size. […] Whatever the reason was, it had no effect on the crosslinking process as the particles still remained stable after GuHCl exposure.
Dynamic light scattering of cross-linkable protein nanoparticles was performed. […] However, these crosslinked particles remain assembled, actually growing slightly in size due to chain swelling of the core and corona in this new buffer. These novel scaffolds support various targeting domains and assemble into nearly identically sized nanoparticles between […] in hydrodynamic radius.

[4] = 15 μm in 7.2M GuHCl, crosslinked
[5] = 15 μm in 7.2M GuHCl, native (not crosslinked)
[6] = 15 μm in PBS, native (not crosslinked)

Molecule	hydrodynamic radius (Rh) [1] [nm]	Rh (nm) ([1]; Table 1, 10 μM in PBS, 15 °C)	Rh (DLS at several temperatures) [2] [nm]	RH (nm) [3, 4] [nm]	RH (nm) [3, 5] [nm]	RH (nm) ([3]; 15 μm in PBS, crosslinked)	RH (nm) [3, 6] [nm]	RH (nm) ([3]; Table 11, crosslinked UAA5-40-K8D4-ligand constructs, 0.7 μM in 7.2M GuHCl)	RH (nm) ([3]; Table 11, crosslinked UAA5-40-K8D4-ligand constructs, 7 μM in PBS)	hydrodynamic radius (DLS) ([3]; 0.7 μM in 7.2M GuHCl)	hydrodynamic radius (DLS) ([3]; 7 μM in PBS)
RLP20-ELP80: RLP-ELP block co-polypeptide, (QYPSDGRG)20-(VPG[A:G]G)80 (protein) QYPSDGRGQYPSDGRGQYPSDGRGQYPSDGRGQYPSDGRGQYPSDGRGQYPSDGRGQYPSDGRGQYPSDGRGQYPSDGRGQYPSDGRGQYPSDGRGQYPSDGRGQYPSDGRGQYPSDGRGQYPSDGRGQYPSDGRGQYPSDGRGQYPSDGRGQYPSDGRGGAGVPGGGVPGAGVPGGGVPGAGVPGGGVPGAGVPGGGVPGAGVPGGGVPGAGVPGGGVPGAGVPGGGVPGAGVPGGGVPGAGVPGGGVPGAGVPGGGVPGAGVPGGGVPGAGVPGGGVPGAGVPGGGVPGAGVPGGGVPGAGVPGGGVPGAGVPGGGVPGAGVPGGGVPGAGVPGGGVPGAGVPGGGVPGAGVPGGGVPGAGVPGGGVPGAGVPGGGVPGAGVPGGGVPGAGVPGGGVPGAGVPGGGVPGAGVPGGGVPGAGVPGGGVPGAGVPGGGVPGAGVPGGGVPGAGVPGGGVPGAGVPGGGVPGAGVPGGGVPGAGVPGGGVPGAGVPGGGVPGAGVPGGGVPGAGVPGGGVPGAGVPGGGVPGAGVPGGGVPGAGVPGGGVPGAGVPGGGVP	5.5	5.5	~7								
UAA5-40: pAzF-containing sphere-forming diblock construct (protein) QYPSDGRGQYPSDGRGQYPSDGRGQYPSDGRGQYPSDGRGQYPSDGRGQYPSDGRGQYPSDGRGQYPSDGRGQYPSDGRGQYPSDGRGQYPSDGRGQYPSDGRGQYPSDGRGQYPSDGRGQYPSDGRGQYPSDGRGQYPSDGRGQYPSDGRGQYPSDGRG[Phe(4-N3)]QYPSDGRGQYPSDGRGQYPSDGRGQYPSDGRGQYPSDGRGQYPSDGRGQYPSDGRGQYPSDGRGQYPSDGRGQYPSDGRGQYPSDGRGQYPSDGRGQYPSDGRGQYPSDGRGQYPSDGRGQYPSDGRGQYPSDGRGQYPSDGRGQYPSDGRGQYPSDGRG[Phe(4-N3)]QYPSDGRGQYPSDGRGQYPSDGRGQYPSDGRGQYPSDGRGQYPSDGRGQYPSDGRGQYPSDGRGQYPSDGRGQYPSDGRGQYPSDGRGQYPSDGRGQYPSDGRGQYPSDGRGQYPSDGRGQYPSDGRGQYPSDGRGQYPSDGRGQYPSDGRGQYPSDGRG[Phe(4-N3)]QYPSDGRGQYPSDGRGQYPSDGRGQYPSDGRGQYPSDGRGQYPSDGRGQYPSDGRGQYPSDGRGQYPSDGRGQYPSDGRGQYPSDGRGQYPSDGRGQYPSDGRGQYPSDGRGQYPSDGRGQYPSDGRGQYPSDGRGQYPSDGRGQYPSDGRGQYPSDGRG[Phe(4-N3)]				52.1 ± 1.0	5.9 ± 1.6	34.3 ± 0.3	29.8 ± 0.2	52.1 ± 1.0	34.3 ± 0.3	52.1 ± 1.0	34.3 ± 0.3
UAA2-40: pAzF-containing sphere-forming diblock construct, two pAzF residues per polypeptide chain (protein) QYPSDGRGQYPSDGRGQYPSDGRGQYPSDGRGQYPSDGRGQYPSDGRGQYPSDGRGQYPSDGRGQYPSDGRGQYPSDGRGQYPSDGRGQYPSDGRGQYPSDGRGQYPSDGRGQYPSDGRGQYPSDGRGQYPSDGRGQYPSDGRGQYPSDGRGQYPSDGRG[Phe(4-N3)]QYPSDGRGQYPSDGRGQYPSDGRGQYPSDGRGQYPSDGRGQYPSDGRGQYPSDGRGQYPSDGRGQYPSDGRGQYPSDGRGQYPSDGRGQYPSDGRGQYPSDGRGQYPSDGRGQYPSDGRGQYPSDGRGQYPSDGRGQYPSDGRGQYPSDGRGQYPSDGRG[Phe(4-N3)]				54.1 ± 2.0	7.0 ± 1.1	29.8 ± 0.3	28.1 ± 0.2				
